Target: T1, receptor binding domain (RBD) of the SARS-CoV-2 spike protein, Delta variant (SARS-CoV-2, Delta (B.1.617.2), strain)
T1 construct: also called Delta RBD; source: bought: Acro Biosystems
Assay: flow cytometry on cells
Conditions: one partner purified

B1: Delta-6 scFv (scFv, V domains shown)
VH: EVQLLESGGGLVQPGGTLRLSCAASGFIVSSNYMSWVRQAPGKGLEWVSLVYPGGSTYYADSVKGRFTVSRDNSKNTLYLQMNSLRAEDMAVYYCARDLPSGVDAVDAFDIWGQGTMVTVSS
VL: DIRVTQSPSSLSASVGDRVSITCRASQIISGYLNWYQQKPGSAPQLLIYASSSLQSGVPPRFSGSRSGTEFTLTISSLQPEDFATYYCQQTYSIPFTFGPGTKVDIK
notes: also called WT Delta-6 scFv; starting clone
Work on B1 yielded a Kd of 1.3 nM.

Source: article PMC12520519, “RESP2: An Uncertainty Aware Multi‐Target Multi‐Property Optimization AI Pipeline for Antibody Discovery” (Advanced Science, 2025)
